The supplement of paper PMC9170038

Tested on: MS2 coat protein
Test: apparent KD of MS2 coat protein; designed switch direction (-1 OFF switch, 1 ON switch): 1; higher = weaker reporter binding
How it was run: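 Transcription of designed RNA switches on Illumina chips was done by stalled E. coli RNA polymerase. SNAP-549-labelled MS2 coat protein was then titrated in doubling steps from 0.7 or 1.5 nM to 3 µM, with steps of 0.8–1.5 h at the lowest and 10–20 min at the highest concentration. The per-design median over clusters of curve-fitted normalised fluorescence is reported as apparent KD.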

[1] = input ligand: microRNA oligo, concentration not stated
[2] = Eterna round: R95, input ligand: FMN 200 uM
[3] = Eterna round: R95, input ligand: microRNA oligo, concentration not stated
[4] = Eterna round: R95, input ligand: none

“UCUGCUGCCCAAGGAUAUCAGCGUGGUAUCCACAUGAGGAUCACCCAUGUAGGUCAGCACUACCCUGAGAAGGUGGGAAAAUAA [Eternabot solution 2] (Eterna round: R96, puzzle: Same State NG 2)” was tested, and the “apparent KD of MS2 coat protein” value (input ligand: FMN 200 uM) was 14.4 nM, the “apparent KD of MS2 coat protein” value [1] was 10.6 nM and the “apparent KD of MS2 coat protein” value (input ligand: none) was 15.1 nM.

With “UCUUGGUUUUUGCUCGUUUUUUGUGUUGAACAUGAGGAUCACCCAUGUAUUGUACGGUCCAAUUUAAUAAUGGUCCG [JMF 23] (puzzle: Sensor for hsa-mir-208a)” the “apparent KD of MS2 coat protein” value [2] was 26.3 nM, the “apparent KD of MS2 coat protein” value [3] was 14.3 nM and the “apparent KD of MS2 coat protein” value [4] was 26.9 nM.

“UCUUGGUUUUUGCUCGUUUUUUGUGUUGAACAUGAGGAUCACCCAUGUAUUGUACGGUCCAAUUUGGUGGUAGUCCG [JMF 68] (puzzle: Sensor for hsa-mir-208a)” was tested, and the “apparent KD of MS2 coat protein” value [2] was 40.4 nM, the “apparent KD of MS2 coat protein” value [3] was 29.6 nM and the “apparent KD of MS2 coat protein” value [4] was 46.9 nM.

“UCUUGGUUUUUGCUCGUUUUUUGUGUUGAACAUGAGGAUCACCCAUGUAUUGUACGGUCCAGUUUAAUAGUGGUCCG [JMF 31] (puzzle: Sensor for hsa-mir-208a)” was tested, and the “apparent KD of MS2 coat protein” value [2] was 25.8 nM, the “apparent KD of MS2 coat protein” value [3] was 13.4 nM and the “apparent KD of MS2 coat protein” value [4] was 23.8 nM.

In the case of “UGAAAACAUGAGGAUCACCCAUGUAUUAUUAUGGGAGGAUAUGGGAAUUAAUUAAUUAAACCAGAAGGCCUAAAGU [Mat - Same State 1 - D89] (puzzle: Same State 1)”, the “apparent KD of MS2 coat protein” value [2] is reported as 24.7 nM, the “apparent KD of MS2 coat protein” value [3] is reported as 57.2 nM and the “apparent KD of MS2 coat protein” value [4] is reported as 52.6 nM.

“UGAAUAAUGAUAGGAUAUACAUGAGGAAUCCUCGUAGAAGGAUCAUGACAUGAGGAUCACCCAUGUAGCGCUCGAAAGAGCGCA [Mat - Same State NG 1 - JL mod - D52] (Eterna round: R96, puzzle: Same State NG 1)” was tested, and the “apparent KD of MS2 coat protein” value (input ligand: FMN 200 uM) was 186 nM, the “apparent KD of MS2 coat protein” value [1] was 54.9 nM and the “apparent KD of MS2 coat protein” value (input ligand: none) was 232 nM.

In the case of “UGAAUAGUGAUAGGAUAUACAUGAGGAAUCCUCGUAGAAGGAUCACGACAUGAGGAUCACCCAUGUAGCCGUCCGUAGACGGCA [Mat - Same State NG 1 - JL mod - D59] (Eterna round: R96, puzzle: Same State NG 1)”, the “apparent KD of MS2 coat protein” value (input ligand: FMN 200 uM) is reported as 353 nM, the “apparent KD of MS2 coat protein” value [1] is reported as 66.4 nM and the “apparent KD of MS2 coat protein” value (input ligand: none) is reported as 231 nM.

With “UGAAUAGUUACAGGAUAUCAUGCGAAAAUUGCGUGAGAAGGGUGGGUGUUGUGCGCUAAGUGCCACAUGAGGAUCACCCAUGUU [SameState NG1 #38] (Eterna round: R96, puzzle: Same State NG 1)” the “apparent KD of MS2 coat protein” value (input ligand: FMN 200 uM) was 44.5 nM, the “apparent KD of MS2 coat protein” value [1] was 7.1 nM and the “apparent KD of MS2 coat protein” value (input ligand: none) was 25.6 nM.

For “UGAAUAGUUACAGGAUAUGAGCCGUAAAUUGGGUCAGAAGGGUGGGUGUUUUGCGCUGUGUGCUACAUGAGGAUCACCCAUGUU [SameState NG1 #33] (Eterna round: R96, puzzle: Same State NG 1)”, the “apparent KD of MS2 coat protein” value (input ligand: FMN 200 uM) was 520 nM, the “apparent KD of MS2 coat protein” value [1] was 172 nM and the “apparent KD of MS2 coat protein” value (input ligand: none) was 240 nM.

“UGAGGUGUAGCAGGAUAUGCCGUCAGUCACCCGGCAGAAGGGCUGAAAGCAUGCUCGCACAUGAGGAUCACCCAUGUCACAGUG [Eternabot solution 17] (Eterna round: R96, puzzle: Same State NG 1)” was tested, and the “apparent KD of MS2 coat protein” value (input ligand: FMN 200 uM) was 48.9 nM, the “apparent KD of MS2 coat protein” value [1] was 37.7 nM and the “apparent KD of MS2 coat protein” value (input ligand: none) was 44 nM.

“UGCCUGAGUCGAGGAUAUUAUGGAUCAAUUAAUACAUGAGGAUCACCCAUGUAAUUAAUUUAACAUGAGAAGGUGACUCAGGCA [SSNG2/10-B2] (Eterna round: R96, puzzle: Same State NG 2)” was tested, and the “apparent KD of MS2 coat protein” value (input ligand: FMN 200 uM) was 14.9 nM, the “apparent KD of MS2 coat protein” value [1] was 12.2 nM and the “apparent KD of MS2 coat protein” value (input ligand: none) was 9.99 nM.

“UGCCUGAGUCGAGGAUAUUAUGGAUCCUCUAAUACAUGAGGAUCACCCAUGUAAUUAAUUAUACAUGAGAAGGCGACUCAGGCU [SSNG2/12-A1] (Eterna round: R96, puzzle: Same State NG 2)” was tested, and the “apparent KD of MS2 coat protein” value (input ligand: FMN 200 uM) was 304 nM, the “apparent KD of MS2 coat protein” value [1] was 22.3 nM and the “apparent KD of MS2 coat protein” value (input ligand: none) was 46.5 nM.

“UGCCUGAGUCGAGGAUAUUAUGGAUCCUUUAAUACAUGAGGAUCACCCAUGUAAUUAAUUAUACAUGAGAAGGCGACUCAGGCA [SSNG2/11-A2] (Eterna round: R96, puzzle: Same State NG 2)” was tested, and the “apparent KD of MS2 coat protein” value (input ligand: FMN 200 uM) was 17.4 nM, the “apparent KD of MS2 coat protein” value [1] was 97 nM and the “apparent KD of MS2 coat protein” value (input ligand: none) was 90.1 nM.

With “UGGAUCUAGGCUUGCCUGGGUCCAUGCUGACAUGAGGAUCACCCAUGUGCAUUCUAUAAGCUUUUUGCUUGUCAGCU (puzzle: Sensor for hsa-mir-208a)” the “apparent KD of MS2 coat protein” value [2] was 373 nM, the “apparent KD of MS2 coat protein” value [3] was 91 nM and the “apparent KD of MS2 coat protein” value [4] was 441 nM.

With “UGGCUCAGACGAGGAUAUAUGUGAUCACAUGAGGAUCACCCAUGUCUCGAGCUUCGGCUCGAGACAUAGAAGGCGUCUGAGCCA [SSNG2/3-A2] (Eterna round: R96, puzzle: Same State NG 2)” the “apparent KD of MS2 coat protein” value (input ligand: FMN 200 uM) was 118 nM, the “apparent KD of MS2 coat protein” value [1] was 66.3 nM and the “apparent KD of MS2 coat protein” value (input ligand: none) was 18.5 nM.
